# Results taken from patent publication US20060228334A1.
# Target: coxsackievirus-adenovirus receptor (CAR) on 293 cells (human) (UniProt P78310)
# Experiment: cell-based or functional assay
# Sequence of UniProt P78310 (P78310 20-365): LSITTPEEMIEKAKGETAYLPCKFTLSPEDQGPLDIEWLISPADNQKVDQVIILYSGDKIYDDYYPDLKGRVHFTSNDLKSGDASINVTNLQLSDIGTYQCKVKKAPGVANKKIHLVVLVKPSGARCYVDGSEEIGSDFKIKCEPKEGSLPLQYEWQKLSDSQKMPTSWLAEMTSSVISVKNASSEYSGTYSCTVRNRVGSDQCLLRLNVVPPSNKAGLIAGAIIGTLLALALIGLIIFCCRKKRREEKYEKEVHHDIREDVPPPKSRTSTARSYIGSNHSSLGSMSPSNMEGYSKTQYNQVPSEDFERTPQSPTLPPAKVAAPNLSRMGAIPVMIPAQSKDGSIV
Substance,IU/Particle (infectious units titrated on 293 cells per particle) [IU/Particle],inhibition of infection of 293 cells by 10 ug/ml recombinant Ad5 knob (FIG. 2) [%]
Ad5 fiber Ala406Lys (virus Ad-LacZ/Fb-Ala406Lys) (from UniProt P11818 1-581),0.000125,–
Ad5 fiber Ser408Glu (virus Ad-LacZ/Fb-S408E) (from UniProt P11818 1-581),9.54e-05,–
Ad5 fiber Val452Lys (virus Ad-LacZ/Fb-Val452Lys) (from UniProt P11818 1-581),0.002,–
Ad5 fiber Ser408Glu and Val452Lys (virus Ad-LacZ/Fb-S408E/V452K) (from UniProt P11818 1-581),9.57e-05,–
Ad5 fiber Ser408Glu and Lys506Gln/His508Lys (virus Ad-LacZ/Fb-S408E/K506Q/H508K) (from UniProt P11818 1-581),0.00025,–
Ad5 fiber Ser555Lys (virus Ad-LacZ/Fb-Ser555Lys) (from UniProt P11818 1-581),0.025,–
Ad5 fiber Ser408Glu and Ser555Lys (virus Ad-LacZ/Fb-S408E/S555K) (from UniProt P11818 1-581),6.38e-05,–
Ad5 fiber Lys506Gln/His508Lys (virus Ad-LacZ/Fb-Lys506Q/His508Lys) (from UniProt P11818 1-581),0.000769,–
wild-type Ad5 fiber protein (as carried by the Ad-LacZ virus) (from UniProt P11818 1-581),0.025,90
Ad5 fiber Thr404Gly (virus Ad-LacZ/Fb-Thr404gly) (from UniProt P11818 1-581),8.33e-05,–
